Here are results for 8 molecules from PMC7246905, “Exploring the Enzymatic and Antibacterial Activities of Novel Mycobacteriophage Lysin B Enzymes” (International Journal of Molecular Sciences, 2020).

Common to all, as to details: 20 mM Tris-HCl, 100 mM NaCl, 0.1% Triton X-100, pH 8, 37 °C
One data set deals with LysB-Obama12 (LysB-His6). The experiment in a line: p-nitrophenol release at […] nm, Michaelis-Menten. The data set is classed as biochemical, Mycobacterium phage Obama12.
Substrate in data set [1]: CCCCCCCCCCCCCC(=O)Oc1ccc([N+](=O)[O-])cc1
Put plainly: purified protein. The data set is classed as biochemical, Mycobacterium phage Saal.

Substrate in data set [2]: CCCCCCCCCCCCCCCC(=O)Oc1ccc([N+](=O)[O-])cc1
The experiment in a line: purified protein. The data set is classed as biochemical, Mycobacterium phage Saal.

Substrate in data set [3]: CCCCCCCCCCCC(=O)Oc1ccc([N+](=O)[O-])cc1
Put plainly: purified protein. Type of data set: biochemical, Mycobacterium phage Saal.

Substrate in data set [4]: CCCC(=O)Oc1ccc([N+](=O)[O-])cc1
Put plainly: purified protein. Type of data set: biochemical, Mycobacterium phage Saal.

Substrate in data set [5]: CCCCCCCC(=O)Oc1ccc([N+](=O)[O-])cc1
Put plainly: purified protein. The data set is classed as biochemical, Mycobacterium phage Saal.

Substrate in data set [6]: CCCCCCCCCCCCCC(=O)Oc1ccc([N+](=O)[O-])cc1
Put plainly: purified protein. Type of data set: biochemical, Mycobacterium phage Omega.

Substrate in data set [7]: CCCCCCCCCCCCCCCC(=O)Oc1ccc([N+](=O)[O-])cc1
The experiment in a line: purified protein. Type of data set: biochemical, Mycobacterium phage Omega.

Substrate in data set [8]: CCCCCCCCCCCC(=O)Oc1ccc([N+](=O)[O-])cc1
Put plainly: purified protein. Type of data set: biochemical, Mycobacterium phage Omega.

Substrate in data set [9]: CCCC(=O)Oc1ccc([N+](=O)[O-])cc1
The experiment in a line: purified protein. The data set is classed as biochemical, Mycobacterium phage Omega.

Substrate in data set [10]: CCCCCCCC(=O)Oc1ccc([N+](=O)[O-])cc1
The experiment in a line: purified protein. The data set is classed as biochemical, Mycobacterium phage Omega.

Substrate in data set [11]: CCCCCCCCCCCCCC(=O)Oc1ccc([N+](=O)[O-])cc1
Put plainly: purified protein. The data set is classed as biochemical, Fromanvirus D29.

Substrate in data set [12]: CCCCCCCCCCCCCCCC(=O)Oc1ccc([N+](=O)[O-])cc1
The experiment in a line: purified protein. Type of data set: biochemical, Fromanvirus D29.

Substrate in data set [13]: CCCCCCCCCCCC(=O)Oc1ccc([N+](=O)[O-])cc1
Put plainly: purified protein. The data set is classed as biochemical, Fromanvirus D29.

Substrate in data set [14]: CCCC(=O)Oc1ccc([N+](=O)[O-])cc1
Put plainly: purified protein. Type of data set: biochemical, Fromanvirus D29.

Substrate in data set [15]: CCCCCCCC(=O)Oc1ccc([N+](=O)[O-])cc1
Put plainly: purified protein. Type of data set: biochemical, Fromanvirus D29.

Like-named read-outs stand apart in the source and are kept apart here.

For `CCCCCCCCCCCC(=O)Oc1ccc([N+](=O)[O-])cc1` [p-nitrophenyl laurate], in the data set on LysB-Obama12 (LysB-His6) (read-out: pNPL (C12)), the Km was determined as 3000 ± 20.1 µM.
Take `CCCCCCCC(=O)Oc1ccc([N+](=O)[O-])cc1` [p-nitrophenyl octanoate]: the Km in the data set on LysB-Obama12 (LysB-His6) (read-out: pNPO (C8)) was 2670 ± 46.5 µM.
With `CCCC(=O)Oc1ccc([N+](=O)[O-])cc1` [p-nitrophenyl butyrate], in the data set with LysB-Obama12 (LysB-His6) (read-out: pNPB (C4)), the Km is 1270 ± 60 µM.
For the molecule `CCCCCCCCCCCCCCCC(=O)Oc1ccc([N+](=O)[O-])cc1` [p-nitrophenyl palmitate], the Km with LysB-Obama12 (LysB-His6) (read-out: pNPP (C16)) turned out to be 800 ± 22.1 µM.
In the case of `CCCCCCCCCCCCCC(=O)Oc1ccc([N+](=O)[O-])cc1` [p-nitrophenyl myristate], in the data set on LysB-Obama12 (LysB-His6) (read-out: pNPM (C14)), the Km came to 1270 ± 86.4 µM.

B1: LysB-Saal (LysB-His6) (Mycobacterium phage Saal) (protein)
chain: MRIDGQYVGLGLGDSSDEIRKIKAFMRRKFASYAGDLADTPLYDEAMTAAVAEMQARYSAAGQLRAGLYIPGIVGAETKYVMGYLPRPVVDTRPVLITVCGTGVPWWIGPDADTARAVEDKYLWQPIGYPAAPFPMGKSIAAAITETHNQANRWRERIETHGAALAGYSQGAVVVSELWMNHIAPEDGSLHWMKPHIEKAVTWGNPNRELGHVWADHGGSPRAPSNTQGVSSNGMRDTPPWWRDYAHQGDLYACTEPGDTQEVRNAIWQIVRDLDLFTGPDSLLAQVVELVQAPLPEAIAITKALLDAGMFFAKRTGPHVDYNVQPAIDYLRT
Regarding B1, the Km in “purified protein [1]” is 956.7 ± 12.93 µM; in “purified protein [2]”, 2833.32 ± 40.824 µM; in “purified protein [3]”, 1476.39 ± 33.184 µM; in the data set “purified protein [4]”, 4172.12 ± 20.104 µM; in the data set “purified protein [5]” it was 1519.25 ± 38.596 µM. The kcat/Km was 54000 ± 3520 M⁻¹ s⁻¹ in “purified protein [1]”; 19700 ± 2420 M⁻¹ s⁻¹ in “purified protein [2]”; 71800 ± 3350 M⁻¹ s⁻¹ in “purified protein [3]”; 44700 ± 7630 M⁻¹ s⁻¹ in “purified protein [4]”; 20300 ± 230 M⁻¹ s⁻¹ in the data set “purified protein [5]”.

B2: LysB-Omega (LysB-His6) (Mycobacterium phage Omega) (protein)
chain: MSLWPEIRAMLNGEFYVPAGTIITANGTGVPDGAGPGFGADLARELERVAEGMWIWKWINYPAAVMPMRPSINTLRLALKEMIRTTPGKIVLSAYSQSAVAFAYVWRDDILNPDGELHDRLDDIVAVILYGNPVRAPGIAYGNELGGQSAPGKLNGHVTGGIAGPDCLRPEECVHPVTGRRIVLDFANAGDLYAAAPVGAEPWVKETEVGHNETLIYEAVMDFNGRDILAFAKEIAQILTMPLSQVVPLVQAIINGLSFLVQGPKAPHWTYTIGPAVDYLVRTGNELRKN
Take B2: the Km in “purified protein [6]” was 98.72 ± 5.292 µM; in “purified protein [7]” it was 24.4 ± 3.116 µM; in the data set “purified protein [8]”, 280.8 ± 3.26 µM; in “purified protein [9]”, 618.8 ± 24.98 µM; in the data set “purified protein [10]” it was 193.3 ± 2.258 µM. Also, the Vmax in “purified protein [6]” was determined as 22.3 µmol/min/mg; in the data set “purified protein [7]”, 1.45 µmol/min/mg; in the data set “purified protein [8]” it was 79.8 µmol/min/mg; in the data set “purified protein [9]” it was 112 µmol/min/mg; in “purified protein [10]” it was 15.7 µmol/min/mg. Besides, the kcat in “purified protein [6]” was 2.35 ± 0.0785 s⁻¹; in the data set “purified protein [7]”, 0.152 ± 0.0184 s⁻¹; in “purified protein [8]” it was 8.4 ± 0.339 s⁻¹; in the data set “purified protein [9]”, 11.7 ± 0.313 s⁻¹; in “purified protein [10]”, 7.54 ± 0.165 s⁻¹. The kcat/Km in the data set “purified protein [6]” is 23800 ± 783 M⁻¹ s⁻¹; in the data set “purified protein [7]”, 6230 ± 4950 M⁻¹ s⁻¹; in “purified protein [8]”, 40200 ± 2260 M⁻¹ s⁻¹; in the data set “purified protein [9]”, 19000 ± 733 M⁻¹ s⁻¹; in “purified protein [10]”, 39000 ± 6070 M⁻¹ s⁻¹.

B3: LysB-D29 (LysB-His6) (Fromanvirus D29) (protein)
chain: MSKPWLFTVHGTGQPDPLGPGLPADTARDVLDIYRWQPIGNYPAAAFPMWPSVEKGVAELILQIELKLDADPYADFAMAGYSQGAIVVGQVLKHHILPPTGRLHRFLHRLKKVIFWGNPMRQKGFAHSDEWIHPVAAPDTLGILEDRLENLEQYGFEVRDYAHDGDMYASIKEDDLHEYEVAIGRIVMKASGFIGGRDSVVAQLIELGQRPITEGIALAGAIIDALTFFARSRMGDKWPHLYNRYPAVEFLRQI
On to B3, for which the Km was 24.08 ± 0.505 µM in “purified protein [11]”; 37.7 ± 7.134 µM in the data set “purified protein [12]”; 19.6 ± 3.094 µM in the data set “purified protein [13]”; 422.6 ± 29.4 µM in the data set “purified protein [14]”; 42.3 ± 0.445 µM in “purified protein [15]”. Further, the Vmax in “purified protein [11]” amounted to 3 µmol/min/mg; in the data set “purified protein [12]”, 2.73 µmol/min/mg; in “purified protein [13]”, 7.55 µmol/min/mg; in the data set “purified protein [14]” it was 122 µmol/min/mg; in “purified protein [15]”, 9.85 µmol/min/mg. In addition, the kcat in “purified protein [11]” came to 0.294 ± 0.0159 s⁻¹; in the data set “purified protein [12]” it was 0.242 ± 0.0168 s⁻¹; in the data set “purified protein [13]”, 0.738 ± 0.026 s⁻¹; in “purified protein [14]”, 11.9 ± 0.187 s⁻¹; in “purified protein [15]”, 0.961 ± 0.213 s⁻¹. Also, the kcat/Km in “purified protein [11]” stood at 12200 ± 512 M⁻¹ s⁻¹; in the data set “purified protein [12]”, 6330 ± 783 M⁻¹ s⁻¹; in the data set “purified protein [13]”, 37700 ± 6030 M⁻¹ s⁻¹; in “purified protein [14]”, 28300 ± 6130 M⁻¹ s⁻¹; in the data set “purified protein [15]”, 22700 ± 723 M⁻¹ s⁻¹.
